Data from IntAct's records for PubMed 31515488.

B1: Nucleoporin p54 (Homo sapiens), Q7Z3B4 (parent)
chain: MAFNFGAPSGTSGTAAATAAPAGGFGGFGTTSTTAGSAFSFSAPTNTGTTGLFGGTQNKGFGFGTGFGTTTGTSTGLGTGLGTGLGFGGFNTQQQQQTTLGGLFSQPTQAPTQSNQLINTASALSAPTLLGDERDAILAKWNQLQAFWGTGKGYFNNNIPPVEFTQENPFCRFKAVGYSCMPSNKDEDGLVVLVFNKKETEIRSQQQQLVESLHKVLGGNQTLTVNVEGTKTLPDDQTEVVIYVVERSPNGTSRRVPATTLYAHFEQANIKTQLQQLGVTLSMTRTELSPAQIKQLLQNPPAGVDPIIWEQAKVDNPDSEKLIPVPMVGFKELLRRLKVQDQMTKQHQTRLDIISEDISELQKNQTTSVAKIAQYKRKLMDLSHRTLQVLIKQEIQRKSGYAIQADEEQLRVQLDTIQGELNAPTQFKGRLNELMSQIRMQNHFGAVRSEERYYIDADLLREIKQHLKQQQEGLSHLISIIKDDLEDIKLVEHGLNETIHIRGGVFS
partner: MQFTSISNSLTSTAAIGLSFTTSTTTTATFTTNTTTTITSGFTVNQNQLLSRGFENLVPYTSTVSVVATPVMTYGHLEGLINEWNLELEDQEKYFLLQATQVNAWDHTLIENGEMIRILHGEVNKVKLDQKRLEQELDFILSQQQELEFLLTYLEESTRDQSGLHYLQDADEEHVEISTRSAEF
B2: Chondroitin sulfate N-acetylgalactosaminyltransferase 2 (Homo sapiens), Q8N6G5 (parent)
chain: MPRRGLILHTRTHWLLLGLALLCSLVLFMYLLECAPQTDGNASLPGVVGENYGKEYYQALLQEQEEHYQTRATSLKRQIAQLKQELQEMSEKMRSLQERRNVGANGIGYQSNKEQAPSDLLEFLHSQIDKAEVSIGAKLPSEYGVIPFESFTLMKVFQLEMGLTRHPEEKPVRKDKRDELVEVIEAGLEVINNPDEDDEQEDEEGPLGEKLIFNENDFVEGYYRTERDKGTQYELFFKKADLTEYRHVTLFRPFGPLMKVKSEMIDITRSIINIIVPLAERTEAFVQFMQNFRDVCIHQDKKIHLTVVYFGKEGLSKVKSILESVTSESNFHNYTLVSLNEEFNRGRGLNVGARAWDKGEVLMFFCDVDIYFSAEFLNSCRLNAEPGKKVFYPVVFSLYNPAIVYANQEVPPPVEQQLVHKKDSGFWRDFGFGMTCQYRSDFLTIGGFDMEVKGWGGEDVHLYRKYLHGDLIVIRTPVPGLFHLWHEKRCADELTPEQYRMCIQSKAMNEASHSHLGMLVFREEIETHLHKQAYRTNSEAVG
partner: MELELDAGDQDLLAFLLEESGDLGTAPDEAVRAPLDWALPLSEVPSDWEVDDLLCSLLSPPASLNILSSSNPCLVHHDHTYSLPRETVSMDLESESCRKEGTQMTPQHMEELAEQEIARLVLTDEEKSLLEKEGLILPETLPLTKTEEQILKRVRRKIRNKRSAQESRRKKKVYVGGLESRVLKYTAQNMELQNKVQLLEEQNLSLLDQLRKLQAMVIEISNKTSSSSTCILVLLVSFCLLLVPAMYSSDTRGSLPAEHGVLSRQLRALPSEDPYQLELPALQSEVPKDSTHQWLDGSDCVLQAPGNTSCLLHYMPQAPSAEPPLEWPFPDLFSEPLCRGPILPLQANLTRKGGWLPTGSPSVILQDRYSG
B3: Mothers against decapentaplegic homolog 3 (Homo sapiens), P84022 (parent)
chain: MSSILPFTPPIVKRLLGWKKGEQNGQEEKWCEKAVKSLVKKLKKTGQLDELEKAITTQNVNTKCITIPRSLDGRLQVSHRKGLPHVIYCRLWRWPDLHSHHELRAMELCEFAFNMKKDEVCVNPYHYQRVETPVLPPVLVPRHTEIPAEFPPLDDYSHSIPENTNFPAGIEPQSNIPETPPPGYLSEDGETSDHQMNHSMDAGSPNLSPNPMSPAHNNLDLQPVTYCEPAFWCSISYYELNQRVGETFHASQPSMTVDGFTDPSNSERFCLGLLSNVNRNAAVELTRRHIGRGVRLYYIGGEVFAECLSDSAIFVQSPNCNQRYGWHPATVCKIPPGCNLKIFNNQEFAALLAQSVNQGFEAVYQLTRMCTIRMSFVKGWGAEYRRQTVTSTPCWIELHLNGPLQWLDKVLTQMGSPSIRCSSVS
B4: Circadian locomoter output cycles protein kaput (Homo sapiens), O15516 (parent)
chain: MLFTVSCSKMSSIVDRDDSSIFDGLVEEDDKDKAKRVSRNKSEKKRRDQFNVLIKELGSMLPGNARKMDKSTVLQKSIDFLRKHKEITAQSDASEIRQDWKPTFLSNEEFTQLMLEALDGFFLAIMTDGSIIYVSESVTSLLEHLPSDLVDQSIFNFIPEGEHSEVYKILSTHLLESDSLTPEYLKSKNQLEFCCHMLRGTIDPKEPSTYEYVKFIGNFKSLNSVSSSAHNGFEGTIQRTHRPSYEDRVCFVATVRLATPQFIKEMCTVEEPNEEFTSRHSLEWKFLFLDHRAPPIIGYLPFEVLGTSGYDYYHVDDLENLAKCHEHLMQYGKGKSCYYRFLTKGQQWIWLQTHYYITYHQWNSRPEFIVCTHTVVSYAEVRAERRRELGIEESLPETAADKSQDSGSDNRINTVSLKEALERFDHSPTPSASSRSSRKSSHTAVSDPSSTPTKIPTDTSTPPRQHLPAHEKMVQRRSSFSSQSINSQSVGSSLTQPVMSQATNLPIPQGMSQFQFSAQLGAMQHLKDQLEQRTRMIEANIHRQQEELRKIQEQLQMVHGQGLQMFLQQSNPGLNFGSVQLSSGNSSNIQQLAPINMQGQVVPTNQIQSGMNTGHIGTTQHMIQQQTLQSTSTQSQQNVLSGHSQQTSLPSQTQSTLTAPLYNTMVISQPAAGSMVQIPSSMPQNSTQSAAVTTFTQDRQIRFSQGQQLVTKLVTAPVACGAVMVPSTMLMGQVVTAYPTFATQQQQSQTLSVTQQQQQQSSQEQQLTSVQQPSQAQLTQPPQQFLQTSRLLHGNPSTQLILSAAFPLQQSTFPQSHHQQHQSQQQQQLSRHRTDSLPDPSKVQPQ

Variants of: B1
Details: with NUP62CL

**Q.** MAFNFGAPSGTSGTAAATAAPAGGFGGFGTTSTTAGSAFSFSAPTNTGTTGLFGGTQNKGFGFGTGFGTTTGTSTGLGTGLGTGLGFGGFNTQQQQQTTLGGLFSQPTQAPTQSNQLINTASALSAPTLLGDERDAILAKWNQLQAFWGTGKGYFNNNIPPVEFTQENPFCRFKAVGYSCMPSNKDEDGLVVLVFNKKETEIRSQQQQLVESLHKVLGGNQTLTVNVEGTKTLPDDQTEVVIYVVERSPSGTSRRVPATTLYAHFEQANIKTQLQQLGVTLSMTRTELSPAQIKQLLQNPPAGVDPIIWEQAKVDNPDSEKLIPVPMVGFKELLRRLKVQDQMTKQHQTRLDIISEDISELQKNQTTSVAKIAQYKRKLMDLSHRTLQVLIKQEIQRKSGYAIQADEEQLRVQLDTIQGELNAPTQFKGRLNELMSQIRMQNHFGAVRSEERYYIDADLLREIKQHLKQQQEGLSHLISIIKDDLEDIKLVEHGLNETIHIRGGVFS [N250S] was tested. Which “effect of a mutation on the interaction” value did it give?
**A.** with no effect

Variants of: B2
Details: with creb3_human CREB3, O43889

**Q.** With MPRRGLILHTRTHWLLLGLALLCSLVLFMYLLECAPQTDGNASLPGVVGENYGKEYYQALLQEQEEHYQTRATSLKRQIAQLKQELQEMSEKMRSLQERRNVGANGIGYQSNKEQAPSDLLEFLHSQIDKAEVSIGAKLPSEYGVIPFESFTLMKVFQLEMGLTRHPEEKPVRKDKRDELVEVIEAGLEVINNPDEDDEQEDEEGPLGEKLIFNENDFVEGYYRTERDKGTQYELFFKKADLTEYRHVTLFRPFGPLMKVKSEMIDITRSIINIIVPLAERTEAFVQFMQNFRDVCIHQDKKIHLTVVYFGKEGLSKVKSILESVTSESNFHNYTLVSLNEEFNRGRGLNVGARAWDKGEVLMFFCDVDIYFSAEFLNSCRLNAEPGKKVFYPVVFSLYNPAIVYANQEVPPPVEQQLVHKKDSGFWRDFGFGMTCQYRSDFLTIGGFDMEVKGWGGEDVHLYRKYLHGDLIVIRTPVSGLFHLWHEKRCADELTPEQYRMCIQSKAMNEASHSHLGMLVFREEIETHLHKQAYRTNSEAVG [P479S] as the variant, how does the “effect of a mutation on the interaction” value read?
**A.** with no effect

Variants of: B3
Details: with smad4_human SMAD4, Q13485
smad4_human SMAD4, Q13485, sequence (Q13485 whole entry): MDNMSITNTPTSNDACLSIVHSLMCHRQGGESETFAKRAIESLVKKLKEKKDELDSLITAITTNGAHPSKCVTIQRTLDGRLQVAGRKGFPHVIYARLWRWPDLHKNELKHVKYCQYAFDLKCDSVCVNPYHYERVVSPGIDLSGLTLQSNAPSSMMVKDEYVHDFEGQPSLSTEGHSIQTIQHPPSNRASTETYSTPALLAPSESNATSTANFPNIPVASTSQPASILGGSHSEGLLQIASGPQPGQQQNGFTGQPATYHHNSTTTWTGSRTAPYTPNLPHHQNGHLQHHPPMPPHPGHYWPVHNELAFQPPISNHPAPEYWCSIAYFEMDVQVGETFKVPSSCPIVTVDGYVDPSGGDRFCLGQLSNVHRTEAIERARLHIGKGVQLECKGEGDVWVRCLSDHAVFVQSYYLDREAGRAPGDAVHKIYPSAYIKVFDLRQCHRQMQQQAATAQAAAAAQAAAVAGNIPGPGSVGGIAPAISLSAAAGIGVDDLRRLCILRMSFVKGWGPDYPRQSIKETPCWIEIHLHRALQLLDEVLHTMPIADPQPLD

**Q.** I170V was tested. Which “effect of a mutation on the interaction” value did it give?
**A.** with no effect

Variants of: B3
Details: with ccd33_human CCDC33, Q8N5R6
ccd33_human CCDC33, Q8N5R6, sequence (Q8N5R6 whole entry): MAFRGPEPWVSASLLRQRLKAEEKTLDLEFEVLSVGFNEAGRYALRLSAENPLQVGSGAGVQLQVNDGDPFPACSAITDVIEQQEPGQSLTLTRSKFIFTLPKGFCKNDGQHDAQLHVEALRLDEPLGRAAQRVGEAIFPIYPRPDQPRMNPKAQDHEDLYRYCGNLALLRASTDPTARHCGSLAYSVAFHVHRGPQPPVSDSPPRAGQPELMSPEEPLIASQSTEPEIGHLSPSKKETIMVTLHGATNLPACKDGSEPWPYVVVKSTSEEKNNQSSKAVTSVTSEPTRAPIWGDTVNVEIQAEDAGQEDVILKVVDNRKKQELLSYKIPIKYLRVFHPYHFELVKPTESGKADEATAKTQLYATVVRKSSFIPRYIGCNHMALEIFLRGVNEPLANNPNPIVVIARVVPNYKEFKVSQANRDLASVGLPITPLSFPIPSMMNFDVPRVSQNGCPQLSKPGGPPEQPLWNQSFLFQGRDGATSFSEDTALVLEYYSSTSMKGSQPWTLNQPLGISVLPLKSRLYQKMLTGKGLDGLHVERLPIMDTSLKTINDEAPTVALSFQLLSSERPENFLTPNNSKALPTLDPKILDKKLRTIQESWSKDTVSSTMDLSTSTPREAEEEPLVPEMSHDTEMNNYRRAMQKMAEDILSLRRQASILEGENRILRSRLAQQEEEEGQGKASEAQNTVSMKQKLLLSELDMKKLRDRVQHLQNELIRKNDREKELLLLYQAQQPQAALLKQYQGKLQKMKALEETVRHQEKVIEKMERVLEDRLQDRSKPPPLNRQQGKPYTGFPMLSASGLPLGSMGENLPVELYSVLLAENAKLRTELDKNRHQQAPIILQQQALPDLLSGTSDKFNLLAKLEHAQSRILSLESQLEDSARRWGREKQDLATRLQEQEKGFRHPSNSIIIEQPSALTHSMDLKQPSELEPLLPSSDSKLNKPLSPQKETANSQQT

**Q.** Which “effect of a mutation on the interaction” value does the source give for I170V here?
**A.** with no effect

Variants of: B3
Details: with smad4_human SMAD4, Q13485
Remark: another data set of the same source

**Q.** P393L was tested. Which “effect of a mutation on the interaction” value did it give?
**A.** with no effect

Variants of: B4
Details: with bmal1_human BMAL1, O00327
bmal1_human BMAL1, O00327, sequence (O00327 whole entry): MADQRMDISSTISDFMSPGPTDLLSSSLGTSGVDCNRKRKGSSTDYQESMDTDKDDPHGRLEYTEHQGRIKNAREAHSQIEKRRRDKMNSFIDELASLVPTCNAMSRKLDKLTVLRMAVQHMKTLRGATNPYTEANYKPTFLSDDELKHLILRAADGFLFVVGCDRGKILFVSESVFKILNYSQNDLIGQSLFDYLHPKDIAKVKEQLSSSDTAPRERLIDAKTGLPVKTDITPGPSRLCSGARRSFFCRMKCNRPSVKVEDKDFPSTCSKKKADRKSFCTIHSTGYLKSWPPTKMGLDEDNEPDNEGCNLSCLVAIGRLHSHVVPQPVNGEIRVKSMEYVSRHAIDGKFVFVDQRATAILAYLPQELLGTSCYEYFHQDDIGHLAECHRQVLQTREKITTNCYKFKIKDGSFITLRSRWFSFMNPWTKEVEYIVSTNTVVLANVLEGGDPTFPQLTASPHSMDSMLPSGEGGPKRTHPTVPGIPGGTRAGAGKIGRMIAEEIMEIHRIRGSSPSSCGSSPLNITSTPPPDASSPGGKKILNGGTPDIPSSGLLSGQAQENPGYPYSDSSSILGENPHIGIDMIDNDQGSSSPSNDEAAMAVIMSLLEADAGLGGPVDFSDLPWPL

**Q.** For G235E, which “effect of a mutation on the interaction” value is on record?
**A.** with no effect
